Results taken from patent US20210206882A1 (AB STUDIO, published 2021).
Substitutions are numbered along the chain they refer to. Names and notes keep the numbering of the source.

Key:
PD-L1 = PD-L1 (UniProt Q9NZQ7 19-290, limits assumed); test: flow cytometry cell binding on MDA231 cells (Cy3 goat anti-human IgG); antibody concentration not given
CD55 = biological target: T1, CD55 (UniProt P08174 35-353, limits assumed); test: as above
T1 construct: In the internalization assay CD55 stood on MDA231 and SIHA cells
T1 sequence (looked up): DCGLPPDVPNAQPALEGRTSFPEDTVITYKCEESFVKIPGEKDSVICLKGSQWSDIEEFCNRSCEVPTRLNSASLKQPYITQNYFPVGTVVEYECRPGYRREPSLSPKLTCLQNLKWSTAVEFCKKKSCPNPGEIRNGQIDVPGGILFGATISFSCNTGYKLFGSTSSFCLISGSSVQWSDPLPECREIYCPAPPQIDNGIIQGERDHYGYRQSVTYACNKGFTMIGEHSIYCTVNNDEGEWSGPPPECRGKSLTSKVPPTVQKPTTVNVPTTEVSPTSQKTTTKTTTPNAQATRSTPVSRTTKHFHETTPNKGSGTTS

[1] = biological target: T2, CD20 (on CD20 positive Raji cells) (UniProt P11836 1-297, limits assumed); test: flow cytometry cell binding on CD20+ Raji cells, 3-fold titration 10 to 0.04 µg/ml and 0
T2 construct: whole, on cells; Raji is a human B cell line
T2 sequence (looked up): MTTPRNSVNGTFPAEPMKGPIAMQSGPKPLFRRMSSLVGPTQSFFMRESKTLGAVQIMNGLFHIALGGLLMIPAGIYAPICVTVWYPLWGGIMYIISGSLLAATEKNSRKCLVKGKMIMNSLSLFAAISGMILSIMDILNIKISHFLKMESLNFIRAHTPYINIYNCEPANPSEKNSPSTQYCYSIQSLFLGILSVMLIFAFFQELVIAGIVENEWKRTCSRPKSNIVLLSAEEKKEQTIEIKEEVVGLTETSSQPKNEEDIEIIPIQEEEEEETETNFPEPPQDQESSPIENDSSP

Sequence of PD-L1 (Q9NZQ7 19-290 limits assumed): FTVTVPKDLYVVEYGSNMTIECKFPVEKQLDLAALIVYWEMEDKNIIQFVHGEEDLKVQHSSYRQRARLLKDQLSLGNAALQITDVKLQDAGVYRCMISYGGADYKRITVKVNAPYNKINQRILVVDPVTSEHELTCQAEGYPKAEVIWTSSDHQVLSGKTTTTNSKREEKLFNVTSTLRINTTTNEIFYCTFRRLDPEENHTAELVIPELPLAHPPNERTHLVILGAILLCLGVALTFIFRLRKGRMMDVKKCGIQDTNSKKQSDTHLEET

B1: Anti-PD-L1 homodimer IgG (PD-L1 v1) containing the designed VH sequence (SEQ ID NO: 4) and the common VL sequence (SEQ ID NO: 6) (antibody, V domains shown)
VH: EVQLLESGGGLVEPGGSLRLSCAASGFTFSSYIMMWVRQAPGKGLEWVSSIYPSGGITFYADTVKGRFTISRDNSKNTLYLQMNSLRAEDTAVYYCARIKLGTVTTVDYWGEGTLVTVSS
VL: QSALTQPASVSGSPGQSITISCTGTSSDVGGYNYVSWYQQHPGKAPKLMIYDVSKRPSGVSNRFSGSKSGNTASLTISGLQAEDEADYYCSSYTSASTRIFGGGTKVTVLR
notes: Homodimer IgG; The heavy chain constant region of the homodimer is not specified; also called PD-L1 mono-dimer IgG; PDL1 homodimer version 1
binding result (PD-L1): binds

B2: parental anti-CD55 antibody (CD55 wt) (antibody, V domains shown)
VH: QVKLQESGGGLVQPGGSLKLSCAASGFTFSGYGMSWIRQTPDKRLEWVATINSGGSYTYYSDSVKGRFTISRDNVKNTLYLQMSSLKSEDTAMYYCARRNGTLYYYLMDYWGRGTLVTVSS
VL: QSVLTQPPSASGSPGQSVTISCTGTSSDVGGYNYVSWYQQHPGKAPKFMIYDVSKRPSGVSNRFSGSKSGNTASLTISGVQAEDEADYYCSSYTSASTVIFGGGTKLTVL
notes: The variable domains come from a published CD55 scFv; also called CD55 parental Ab; anti-CD55 parental monoclonal antibody
binding result (CD55): binds

B3: Anti-CD55 homodimer IgG (CD55 v1) containing the designed VH sequence (SEQ ID NO: 5) and the common VL sequence (SEQ ID NO: 6) (antibody, V domains shown)
VH: B2 VH with Q13K, D42G
VL: B1 VL
notes: Homodimer IgG; also called CD55 mono-dimer IgG; CD55 homodimer version 1
binding result (CD55): binds

B4: parental anti-CD20 IgG (Rituximab) (antibody, V domains shown)
VH: QVQLQQPGAELVKPGASVKMSCKASGYTFTSYNMHWVKQTPGRGLEWIGAIYPGNGDTSYNQKFKGKATLTADKSSSTAYMQLSSLTSEDSAVYYCARSTYYGGDWYFNVWGAGTTVTVSA
VL: QIVLSQSPAILSASPGEKVTMTCRASSSVSYIHWFQQKPGSSPKPWIYATSNLASGVPVRFSGSGSGTSYSLTISRVEAEDAATYYCQQWTSNPPTFGGGTKLEIKR
notes: tested as IgG; also called Parental CD20; CD20 parental Ab
EC50 (read off the curve) [1]: ~0.2 µg/mL

B5: CD20 homodimer IgG containing the designed VH sequence (SEQ ID NO: 1) and the common VL sequence (SEQ ID NO: 3) (antibody, V domains shown)
VH: B4 VH with T87R
VL: B4 VL
notes: Homodimer IgG with two VHa and two common VL; VHa is the Rituximab VH with T83R (Kabat); also called redesigned Rituximab; antibody A
EC50 (read off the curve) [1]: ~0.4 µg/mL

B6: parental anti-CD3 IgG (MAb 12F6) (antibody, V domains shown)
VH: QVQLQQSGAELARPGASVKMSCKASGYTFTSYTMHWVKQRPGQGLEWIGYINPSSGYTKYNQKFKDKATLTADKSSSTAYMQLSSLTSEDSAVYYCARWQDYDVYFDYWGQGTTLTVSS
VL: B4 VL with I32M, F35Y, V59A, T91S, I105T
notes: tested as IgG; also called Parental CD3; CD3 parental Ab
binding result [1]: no binding (tested: 10 µg/ml)

B7: CD3 homodimer IgG containing the designed VH sequence (SEQ ID NO: 2) and the common VL sequence (SEQ ID NO: 3) (antibody, V domains shown)
VH: B6 VH with Q1E, Q6E, Q43E, Q82E, Q111E
VL: B4 VL
notes: Homodimer IgG with two VHb and two common VL; also called redesigned 12F6; antibody B
binding result [1]: no binding (tested: 10 µg/ml)
